# Laboratory results: the nanobody polyreactivity screen of Harvey et al. (2022)
# Test: yeast display, Sf9 membrane polyspecificity reagent, FACS + sequencing; frameworks hold sequencing errors
# In short: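 A nanobody's polyreactivity label depends on the gate it was sorted from. Yeast display cells were stained with 10% biotinylated, detergent-solubilized Sf9 membrane reagent for 1 hour at 4 °C, enriched on streptavidin microbeads and sorted by FACS. The low and high (top ~1%) gates were set on anti-HA fluorescence for expression and streptavidin fluorescence for reagent binding.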
row,Sequence,polyreactivity (PSR sort gate)
1,QVQLVESGGGLVQAGGSLRLSCAASGITFFRYAMGWYRQAPGKERELVAAISSSGGSTYYADSVKGRFTISRDNAKNTVYLQMNSLKPEDTAVYYCAAAHGYRYYWGQGTQVTVSS,high polyreactivity
2,QVQLVESGGGLVQAGGSLRLSCAASGITFFRYTMGWYRQAPGKEREFVAAINIRGTRTYYADSVKGRFTISRDNAKNTVYLQMNSLKPEDTAVYYCAAGYAYRYSGLSYDVDYWGQGTQVTVSS,high polyreactivity
3,QVQLVESGGGLVQAGGSLRLSCAASGITFFTYGMGWYRQAPGKERELVASINWSGGTYYADSVKGRFTISRDNAKNTVYLQMNSLKPEDTAVYYCAAETSNSTQEMGYWGQGTQVTVSS,low polyreactivity
4,QVQLVESGGGLVQAGGSLRLSCAASGITFFTYTMGWYRQAPGKERELVARIRWDGGSTYYADSVKGRFTISRDNAKNTVYLQMNSLKPEDTAVYYCAADYPYSTYDYWGQVTQVTVSS,low polyreactivity
5,QVQLVESGGGLVQAGGSLRLSCAASGITFGAYAMGWYRQAPGKEMELVAVITRGADTYYADSVKGRFTISRDNAKNTVYLQMNSLKPEDTAVYDCAAEIDLPYYYGSDDDDYWGQGTQVTVSS,high polyreactivity
6,QVQLVESGGGLVQAGGSLRLSCAASGITFGDYAMGWSRQAPGKERELVAGINWSGDGTYYADSVKGRFTISRDNAKNTVYLQMNSLKPEDTAVYYCAAETFYDYGGYDYWGQGTQVTVSS,low polyreactivity
7,QVQLVESGGGLVQAGGSLRLSCAASGITFGFNAMGWYRQAPGKERELVAAITWSVGRTYYADSVKGRFTISRDNAKNTVYLQMNSLKPEDTAVYYCAKEFVAGDDYFAYDYWGQGTQVTVSS,low polyreactivity
8,QVQLVESGGGLVQAGGSLRLSCAASGITFGGNAMGWYRQDPGKERELVAAISSSGGSTYYADSVKGRFTISRDNAKNTVYLQMNSLKPEDTAVYYCAARNRYPLRFYYWGQGTQVTVSS,high polyreactivity
9,QVQLVESGGGLVQAGGSLRLSCAASGITFGLYAMGWYRQAPGKERELVAAITWRGGSTYYADSVKGRFTISRDNAKNTVYLQMNSLKPEDTAVYYCAADFSGYSDDYWGQGTQVTVSS,high polyreactivity
10,QVQLVESGGGLVQAGGSLRLSCAASGITFGRKTMGWYRQAPGKERELLAAIDSGGNTYADSVKGRFTISRDNAKNTDYLEMNSLKPEDTAVYYCAVDGGEFYSYGYWGLGTQVTVSS,low polyreactivity
11,QVQLVESGGGLVQAGGSLRLSCAASGITFGRNTMAWYIQAPGKERELVAAIDSGGNTYADSVKGRFTISRDNAKITVDLQMNSLKQEDTSVYYCAVVWVWDVWFLVYYWGQGTQVTVSS,low polyreactivity
12,QVQLVESGGGLVQAGGSLRLSCAASGITFGRNTMGWSRQAPGKEREMVASITRGGNTNYADSVKGRFTISRDNAKNTVYLQLNSLKPEDTAVYYCAARSTYRVSHVDYWGQGTQVTVSS,low polyreactivity
13,QVQLVESGGGLVQAGGSLRLSCAASGITFGRNTMGWYRPAPGKERELVAAIDSGGNTYADSVKGRFTISRDNAKNTVYLQMNSLKAEDTAVYYCAVDGGEFSSYGYWGQGTQVTVSS,low polyreactivity
14,QVQLVESGGGLVQAGGSLRLSCAASGITFGRNTMGWYRQAPGKERELVASINKSGGSTYYADSVKGRFTISRDNAKNTVYLQMNSLKPEDTAVYYCAARTGWPRVGFLYPAHVGFDYWGQGTQVTVSS,low polyreactivity
15,QVQLVESGGGLVQAGGSLRLSCAASGITFGRNTMGWYRQPPGKERELVAAIDSGGNTYADSVKGRFTISRDNAKNTVYLQMNSLKPEDTAVYYCAVDGGEFSSYGYWVQGTQVTVSS,low polyreactivity
16,QVQLVESGGGLVQAGGSLRLSCAASGITFGRYAMGWYRQAPGKERELVAAISWSGGSTYYADSVKGRFTISRDNANNTVYLQMNRLKPEDTAVYYCNVVFRFNSFDYYYWGQGSQVTVSS,high polyreactivity
17,QVQLVESGGGLVQAGGSLRLSCAASGITFGRYVMGWYRQAPGKERELVATISSGGRTKYADSVKGRFSISRDNAKNTVYLQMNSLKPEDTAGYYCNAESPKWPWYSGFDYWGQGTQVTVSS,high polyreactivity
18,QVQLVESGGGLVQAGGSLRLSCAASGITFGSYAMGWYRQAPGKERELVAAITWRGGTTYYADSVKARFTISRDNAKNTVYLQMNSLKPEDTAVYYCNTAWTGYPRYQYGGNYWGQGTQVTVSS,high polyreactivity
19,QVQLVESGGGLVQAGGSLRLSCAASGITFGVNTMGWYRQAPGKERELVAAITWRGGSTYYADSVKGRFTISRDNAKNTVYLQMNSLKPEDTAVYYCAAQPIWPGGQELDYWGQGTQVTVSS,low polyreactivity
20,QVQLVESGGGLVQAGGSLRLSCAASGITFGYYAMGWYRQAPGKERELVASISWSGDSTYYADSVKGRFTISRDNAKNTVYLQMNSLKPEDTAVYYCNRGSSWEYGAEYNYWGQGTQVTVSS,low polyreactivity
21,QVQLVESGGGLVQAGGSLRLSCAASGITFGYYDMGWYRQAPGKERELVAAISRGGGRTYYADSVKGRFTISRDNAKNTVYLQMNSLKPEDSAVYYCAAPSRYGGRGRPTLYDYWGQGTQVTVSS,high polyreactivity
22,QVQLVESGGGLVQAGGSLRLSCAASGITFHGYAMGWDRQAPGKERELVAAISDSGSSTYYADSVKGRFTISRDNAKNTVYLQMNSLKPEHTAVYYCAAVSGFYDQYDYWGQGTQVTVSS,low polyreactivity

row,Sequence,polyreactivity (PSR sort gate)
1,QVQLVESGGGLVQAGGSLRLSCAASGITFHRYDMVWYRQAPGKERELVADITWSGGSTYYADSVKVRFTISRDNAKNTVYLQMNSLKPEDTAVYYCAADASTYTYTPYDYWGQGTQVTVSS,low polyreactivity
2,QVQLVESGGGLVQAGGSLRLSCAASGITFIGYVMGWYRQAPGKERELVAAISRSGASTYYADSVKGRFTISRDNAKNTVYLQMNSLKPEDTAVYYCATVRYHPAYYYWGQGTQVTVSS,high polyreactivity
3,QVQLVESGGGLVQAGGSLRLSCAASGITFINYDMGWYRQAPGKERELVAAISQIGTSTYYADSVKGRFTISRDNAKNTVYLQMNSLKPEDTAVYYCNARYISTGFRYNYWGQGTQVTVSS,high polyreactivity
4,QVQLVESGGGLVQAGGSLRLSCAASGITFIRYAMGWYRQAPGKERELVAVITRSGGRTYYADSVKGRFTISRDNAKNTVYLQMNSLKPEDTAVYYCAARAYGYDEYEYWGQGTQVTVSS,high polyreactivity
5,QVQLVESGGGLVQAGGSLRLSCAASGITFITYAMGWYRQAPGKERELVAAISIRGGSTYYADSVKGRFTISRDNAKNTVYLQMNSLKPEDTAVYYCAKDNRSYTYDYWGQGTQVTVSS,low polyreactivity
6,QVQLVESGGGLVQAGGSLRLSCAASGITFITYVMGWYRQAPGKERELVAAISLRGGRTSYADSVKGRFTISRDNAKNTVYLQMNSLKPEDTAVYYCAARAYYTRYDFWGQGTQVTVSS,high polyreactivity
7,QVQLVESGGGLVQAGGSLRLSCAASGITFKRNAMGWYRQAPGKERELVAAISTTGGRTYYADSVKGRFTISRDNAKNTVYLQMNSLKPEDTAVYYCAARGGPVTYDYWGQGTQVTVSS,high polyreactivity
8,QVQLVESGGGLVQAGGSLRLSCAASGITFKTYDMGRYRQAPGKERELVATINRGSRTNYADSVKGRFTISRDNAKNTVYLQMNSLKPEDTAVYYCSAHDTTFIPSPDGDYLGQGTQVTVSS,low polyreactivity
9,QVQLVESGGGLVQAGGSLRLSCAASGITFKYNAMAWYRQAPGKEMELVAAISSGGNTYYADSVKGRFTISRDNAKNTVYLQMNSLKPEDTAVYYCAAPSYDTLWHDYWGQGTQVTVSS,low polyreactivity
10,QVQLVESGGGLVQAGGSLRLSCAASGITFKYYAMGWYRQAPGKERELVAAITSGTRTNYADSVKGRFTISRDNAKNTVYLQMNSLKPEDTAVYYCAKVGSWYTSHRFGYWGHGTQVTVSS,high polyreactivity
11,QVQLVESGGGLVQAGGSLRLSCAASGITFLDNDMGWYRQAPVKERELVAAITSGVSTYYADSVKGRFTISRDNAKNTVYLQMNSLKPEDTAVYYCAADRPDVAGDYGGQGTQVTVSS,low polyreactivity
12,QVQLVESGGGLVQAGGSLRLSCAASGITFLDNVMGWYRQAPGKERELVADINSIGTSTSYADSVKGRFTISRDNAKNTVYLQMNSLKPEDTAVYYCAADTGLEDYDYWGQGTQVTVSS,low polyreactivity
13,QVQLVESGGGLVQAGGSLRLSCAASGITFLNYAMGWYRQAPGKERELVAAISWSGGRTYYADSVKGRFTISRDNGKNTVYLQMNSLKPEDTAVYYCAADRGVNSYGYWGQGTQVTVSS,high polyreactivity
14,QVQLVESGGGLVQAGGSLRLSCAASGITFLNYAMGWYRQAPGKERELVAAISWSRGRTYYADSVKGRFTISRDNAKNTGYLQMNSLKPEDTAVYDCAADRGVNSYGYWGQGTQVTVSS,high polyreactivity
15,QVQLVESGGGLVQAGGSLRLSCAASGITFLSNAMGWYRQAPGKERELVAAISRGGGTTYYADSVKGRFTISRDNAKNTVYLQMNSLKPEDTAVYYCATESTHTRRSWYEYWGQGTQVTVSS,high polyreactivity
16,QVQLVESGGGLVQAGGSLRLSCAASGITFLVYVMGWYRQAPGKERELVAAISSGGSTYYADSVKGRFTISRDNAKNTVYVQMNSLKPEDTAVYYCAAERKLYGLYDYWGQGTQVTVSS,low polyreactivity
17,QVQLVESGGGLVQAGGSLRLSCAASGITFNDYTMGWYRQGPGKERELVAVNTKTGSRTYYADSVKGRFTISRDNAKNTVYLQMNSLKPEDTAVYYCNALYYIHYYQGYGYWGQGTQVTVSS,high polyreactivity
18,QVQLVESGGGLVQAGGSLRLSCAASGITFNQYVMGWYRQAPGKESELVAAISRSGATTYYADSVKGRFTISRDNAKNTVYLQMNSLKPEDTAVYYCAVRGSVSYTRYGYWGQGTQVTVSS,high polyreactivity
19,QVQLVESGGGLVQAGGSLRLSCAASGITFNRNAMGWYRQAPGKERELVAAISSDGNTNYADSVKGRFTISRDNAKNTVYLQMNSLKPEDTAVYYCAAPVIQITDVWYDAETYPDYDYWGQGTQVTVSS,low polyreactivity
20,QVQLVESGGGLVQAGGSLRLSCAASGITFNSYAKGWYRQAPGKERELVASISWIGGSTYYADSVKLRFTISRDNAKNTVYLQMNSLKPEDTAVYYCAVDKGTDYYYEVDYWGQGTQVTVSS,low polyreactivity
21,QVQLVESGGGLVQAGGSLRLSCAASGITFNVYAMGWYRQAPGKERELVAAISYNGGRTYYADSVKGRFTISRDNAKNTVYLPMNSLKPEDTAVYYCAAQWPWGPYDYWGQGTQVTVSS,high polyreactivity
